Test results as given in patent publication US9988424 (DUKE UNIVERSITY, dated 2018).
Where a chain is given by its changes, count along the chain named. Like-named read-outs stand apart in the source and are kept apart here.

Experiments:
[1] = target: Env of 92TH023 K169Q virus (HIV-1); test: cell-based or functional assay
Env of 703357.c02 virus = Env of 703357.c02 virus (HIV-1); test: cell-based or functional assay
[2] = target: Env of CM244NW.6.I181L virus (HIV-1); test: cell-based or functional assay
[3] = target: Env of 703357.2.Q169KI181L virus (HIV-1); test: cell-based or functional assay
[4] = target: Env of 427299.c12.H81L virus (HIV-1); test: cell-based or functional assay
[5] = target: Env of 703357.2.Q169KR170Q virus (HIV-1); test: cell-based or functional assay
[6] = target: Env of 703357.2.Q169KR170QI181L virus (HIV-1); test: cell-based or functional assay
Env of 427299.c12 virus = Env of 427299.c12 virus (HIV-1); test: cell-based or functional assay
[7] = target: Env of TH023.6.I181L virus (HIV-1); test: cell-based or functional assay
[8] = target: Env of CM244NW.4.K169Q virus (HIV-1); test: cell-based or functional assay
Env of AE.CM244 virus = Env of AE.CM244 virus (HIV-1); test: cell-based or functional assay
[9] = target: Env of 703357.2.Q169K virus (HIV-1); test: cell-based or functional assay
[10] = target: Env of 703357.2.I181L virus (HIV-1); test: cell-based or functional assay
[11] = target: Env of 427299.c12.KL.Q169K/I181L virus (HIV-1); test: cell-based or functional assay
Env of AE.92TH023 virus = Env of AE.92TH023 virus (HIV-1); test: cell-based or functional assay
[12] = target: Env of 427299.c12.Q169K virus (HIV-1); test: cell-based or functional assay
gp70 C.1086 V1/V2 [13] = target: T1, gp70 C.1086 V1/V2 (HIV-1 V1V2 on murine leukemia virus gp70); test: ELISA
T1 construct: also called C.gp70 1086C V1V2; C.1086gp70V1V2
T1 chain: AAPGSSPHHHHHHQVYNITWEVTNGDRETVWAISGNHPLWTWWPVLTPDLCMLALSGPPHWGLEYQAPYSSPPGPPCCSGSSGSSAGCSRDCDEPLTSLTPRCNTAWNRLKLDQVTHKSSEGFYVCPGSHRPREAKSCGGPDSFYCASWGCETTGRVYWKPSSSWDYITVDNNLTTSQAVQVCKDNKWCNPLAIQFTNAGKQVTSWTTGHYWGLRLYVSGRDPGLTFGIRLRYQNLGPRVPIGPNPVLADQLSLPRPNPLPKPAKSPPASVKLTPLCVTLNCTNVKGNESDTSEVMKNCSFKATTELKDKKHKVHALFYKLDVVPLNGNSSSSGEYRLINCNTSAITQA

gp70 C.1086 V1/V2 [14] = target: T1, gp70 C.1086 V1/V2; test: ELISA
AE.A244 V1V2 Tags [15] = target: AE.A244 V1V2 Tags (HIV-1); test: ELISA
[16] = target: T2, gp70 B.CaseA2 V1/V2/V169K (HIV-1 V1V2 on murine leukemia virus gp70); test: ELISA
T2 chain: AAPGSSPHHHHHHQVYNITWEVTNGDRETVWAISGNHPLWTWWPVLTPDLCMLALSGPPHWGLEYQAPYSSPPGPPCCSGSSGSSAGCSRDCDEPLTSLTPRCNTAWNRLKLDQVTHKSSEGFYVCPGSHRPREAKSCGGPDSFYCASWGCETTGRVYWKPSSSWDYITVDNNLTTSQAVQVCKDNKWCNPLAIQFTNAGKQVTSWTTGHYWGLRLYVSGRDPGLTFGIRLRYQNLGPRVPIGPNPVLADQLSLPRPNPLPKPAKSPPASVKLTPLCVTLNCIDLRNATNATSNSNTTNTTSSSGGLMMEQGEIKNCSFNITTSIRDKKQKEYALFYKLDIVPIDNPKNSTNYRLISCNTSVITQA

[17] = target: T3, gp70 B.CaseA2 V1/V2/V169K/E172V/E173H (HIV-1 V1V2 on murine leukemia virus gp70); test: ELISA
T3 construct: also called gp70 B.CaseA2 V1/V2 Mut3
T3 chain: T2 chain with E332V, Y333H

AE.A244 V1V2 Tags [18] = target: AE.A244 V1V2 Tags (HIV-1); test: ELISA; remark: listed apart in the source
AE.A244 V1V2 Tags [19] = target: AE.A244 V1V2 Tags (HIV-1); test: ELISA; remark: listed apart in the source
[20] = target: T4, AE.A244 V1/V2 Tags N156QN160Q (HIV-1); test: ELISA; markers as in the legend printed on D00157
T4 chain: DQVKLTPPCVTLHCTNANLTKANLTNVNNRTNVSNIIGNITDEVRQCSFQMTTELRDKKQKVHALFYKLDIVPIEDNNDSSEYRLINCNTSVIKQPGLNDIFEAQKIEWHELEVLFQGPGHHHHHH

B1: CH58 reverted unmutated ancestor antibody (antibody, V domains shown)
VH: EVQLVQSGAEVKKPGESLKISCKGSGYSFTSYWIGWVRQMPGKGLEWMGIIYPGDSDTRYSPSFQGQVTISADKSISTAYLQWSSLKASDTAMYYCARLGGRYYYDSSGYYYFDYWGQGTLVTVSS
VL: NFMLTQPHSVSESPGKTVTISCTRSSGSIASNYVQWYQQRPGSSPTTVIYEDNQRPSGVPDRFSGSIDSSSNSASLTISGLKTEDEADYYCQSYDSSSWVFGGGTKLTVL
notes: also called CH58 RUA; CH58_RUA
> 50 µg/mL: ID50 assayed in TZM-bl cells, TH023.6.K169Q [1] | ID50 assayed in TZM-bl cells, 703357.c02 (Env of 703357.c02 virus) | ID50 assayed in TZM-bl cells, CM244NW.6.I181L [2] | ID50 assayed in TZM-bl cells, 703357.2.Q169KI181L [3] | ID50 assayed in TZM-bl cells, 427299.c12.H81L [4] | ID50 assayed in TZM-bl cells, 703357.2.Q169KR170Q [5] | ID50 assayed in TZM-bl cells, 703357.2.Q169KR170QI181L [6] | ID50 assayed in TZM-bl cells, 427299.c12 (Env of 427299.c12 virus) | ID50 assayed in TZM-bl cells, TH023.6.I181L [7] | ID50 assayed in TZM-bl cells, CM244NW.4.K169Q [8] | ID50 assayed in TZM-bl cells, CM244.ec1 (Env of AE.CM244 virus) | ID50 assayed in TZM-bl cells, 703357.2.Q169K [9] | ID50 assayed in TZM-bl cells, 703357.2.I181L [10] | ID50 assayed in TZM-bl cells, 427299.c12.KL.Q169K/I181L [11] | ID50 assayed in TZM-bl cells, TH023.6 (Env of AE.92TH023 virus) | ID50 assayed in TZM-bl cells, 427299.c12.Q169K [12]
> 66.7 nM: EC50 (gp70 C.1086 V1/V2 [13]) | EC50 (gp70 C.1086 V1/V2 [14])

B2: PG16 (antibody, V domains shown)
VH: QEQLVESGGGVVQPGGSLRLSCLASGFTFHKYGMHWVRQAPGKGLEWVALISDDGMRKYHSDSMWGRVTISRDNSKNTLYLQFSSLKVEDTAMFFCAREAGGPIWHDDVKYYDFNDGYYNYHYMDVWGKGTTVTVSS
VL: QSALTQPASVSGSPGQTITISCNGTSSDVGGFDSVSWYQQSPGKAPKVMVFDVSHRPSGISNRFSGSKSGNTASLTISGLHIEDEGDYFCSSLTDRSHRIFGGGTKVTVL
notes: also called mAb PG16; bnAb PG16
3.7 nM: EC50 (AE.A244 V1V2 Tags [18]) | EC50 (AE.A244 V1V2 Tags [19])
no binding: binding result [16] | binding result [17]
5.6 nM: EC50 (AE.A244 V1V2 Tags [15])

B3: PG9 reverted unmutated ancestor antibody (antibody, V domains shown)
VH: QVQLVESGGGVVQPGRSLRLSCAASGFTFSSYGMHWVRQAPGKGLEWVAVISYDGSNKYYADSVKGRFTISRDNSKNTLYLQMNSLRAEDTAVYYCAREAGGPDYRNGYNYYDFWSGYYNYYYMDVWGKGTTVTVSS
VL: QSALTQPASVSGSPGQSITISCTGTSSDVGSYNLVSWYQQHPGKAPKLMIYEVSKRPSGVSNRFSGSKSGNTASLTISGLQAEDEADYYCCSLTSTRRWVFGGGTKLTVL
notes: also called PG9 RUA; PG9_RUA
no binding (tested: 100 ug/ml): binding result [20]

B4: PG16 reverted unmutated ancestor antibody (antibody, V domains shown)
VH: B3 VH with D104I, Y105W, R106H, N107D, G108D, Y109V, N110K, W115N, S116D, N120Y
VL: B3 VL with S95D, T96R, R97S, R98H, W99R, V100I
notes: also called PG16 RUA; PG16_RUA
no binding (tested: 100 ug/ml): binding result [20]
